Like-named read-outs stand apart in the source and are kept apart here. Each block holds one binder with its values, some of them ahead of it.
What was measured:
[1] = target: T1, Cul1•^GSTRbx1 (UniProt Q13616 1-776; P62877 1-108); assay: pull-down
[2] = target: T1, Cul1•^GSTRbx1; assay: pull-down; remark: listed apart in the source
[3] = target: T2, Cul1^AMC•Rbx1 (UniProt Q13616 1-776; P62877 1-108, AMC on the C-terminus (GGGG^AMC peptide joined by sortase)); assay: FRET or BRET
[4] = target: T2, Cul1^AMC•Rbx1; assay: FRET or BRET; remark: listed apart in the source
[5] = target: T1, Cul1•^GSTRbx1; assay: pull-down; remark: listed apart in the source

T1 sequence (Q13616 whole entry, chain 1 of 2): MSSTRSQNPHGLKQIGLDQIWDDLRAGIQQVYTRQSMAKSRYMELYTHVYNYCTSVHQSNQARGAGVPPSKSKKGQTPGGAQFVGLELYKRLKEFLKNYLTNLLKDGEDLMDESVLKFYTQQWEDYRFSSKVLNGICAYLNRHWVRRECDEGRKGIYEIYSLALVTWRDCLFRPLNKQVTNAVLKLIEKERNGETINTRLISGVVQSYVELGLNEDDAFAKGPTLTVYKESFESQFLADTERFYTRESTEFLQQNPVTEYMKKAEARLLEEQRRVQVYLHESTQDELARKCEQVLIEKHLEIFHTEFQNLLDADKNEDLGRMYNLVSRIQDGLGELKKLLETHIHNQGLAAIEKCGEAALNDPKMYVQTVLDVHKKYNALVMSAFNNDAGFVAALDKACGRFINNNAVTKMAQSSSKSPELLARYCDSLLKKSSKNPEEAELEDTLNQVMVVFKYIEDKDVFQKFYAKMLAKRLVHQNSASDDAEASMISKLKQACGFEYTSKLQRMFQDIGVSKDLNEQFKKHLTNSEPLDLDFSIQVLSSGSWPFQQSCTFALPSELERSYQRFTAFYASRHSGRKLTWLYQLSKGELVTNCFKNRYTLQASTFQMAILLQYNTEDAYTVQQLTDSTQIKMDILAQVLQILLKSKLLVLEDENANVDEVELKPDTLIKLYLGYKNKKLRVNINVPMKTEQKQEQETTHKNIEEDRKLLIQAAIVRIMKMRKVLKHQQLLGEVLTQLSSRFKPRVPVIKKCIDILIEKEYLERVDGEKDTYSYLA
T1 sequence (P62877 whole entry, chain 2 of 2): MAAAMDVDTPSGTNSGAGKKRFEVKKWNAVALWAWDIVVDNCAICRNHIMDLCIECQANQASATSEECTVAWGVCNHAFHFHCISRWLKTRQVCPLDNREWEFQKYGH
T2 sequence (Q13616 whole entry, chain 1 of 2): as the sequence (Q13616 whole entry, chain 1 of 2) above
T2 sequence (P62877 whole entry, chain 2 of 2): as the sequence (P62877 whole entry, chain 2 of 2) above

binding result [1]: binds
B1: Cand1 (natural protein, UniProt Q86VP6 1-1230, looked up)
chain: MASASYHISNLLEKMTSSDKDFRFMATNDLMTELQKDSIKLDDDSERKVVKMILKLLEDKNGEVQNLAVKCLGPLVSKVKEYQVETIVDTLCTNMLSDKEQLRDISSIGLKTVIGELPPASSGSALAANVCKKITGRLTSAIAKQEDVSVQLEALDIMADMLSRQGGLLVNFHPSILTCLLPQLTSPRLAVRKRTIIALGHLVMSCGNIVFVDLIEHLLSELSKNDSMSTTRTYIQCIAAISRQAGHRIGEYLEKIIPLVVKFCNVDDDELREYCIQAFESFVRRCPKEVYPHVSTIINICLKYLTYDPNYNYDDEDEDENAMDADGGDDDDQGSDDEYSDDDDMSWKVRRAAAKCLDAVVSTRHEMLPEFYKTVSPALISRFKEREENVKADVFHAYLSLLKQTRPVQSWLCDPDAMEQGETPLTMLQSQVPNIVKALHKQMKEKSVKTRQCCFNMLTELVNVLPGALTQHIPVLVPGIIFSLNDKSSSSNLKIDALSCLYVILCNHSPQVFHPHVQALVPPVVACVGDPFYKITSEALLVTQQLVKVIRPLDQPSSFDATPYIKDLFTCTIKRLKAADIDQEVKERAISCMGQIICNLGDNLGSDLPNTLQIFLERLKNEITRLTTVKALTLIAGSPLKIDLRPVLGEGVPILASFLRKNQRALKLGTLSALDILIKNYSDSLTAAMIDAVLDELPPLISESDMHVSQMAISFLTTLAKVYPSSLSKISGSILNELIGLVRSPLLQGGALSAMLDFFQALVVTGTNNLGYMDLLRMLTGPVYSQSTALTHKQSYYSIAKCVAALTRACPKEGPAVVGQFIQDVKNSRSTDSIRLLALLSLGEVGHHIDLSGQLELKSVILEAFSSPSEEVKSAASYALGSISVGNLPEYLPFVLQEITSQPKRQYLLLHSLKEIISSASVVGLKPYVENIWALLLKHCECAEEGTRNVVAECLGKLTLIDPETLLPRLKGYLISGSSYARSSVVTAVKFTISDHPQPIDPLLKNCIGDFLKTLEDPDLNVRRVALVTFNSAAHNKPSLIRDLLDTVLPHLYNETKVRKELIREVEMGPFKHTVDDGLDIRKAAFECMYTLLDSCLDRLDIFEFLNHVEDGLKDHYDIKMLTFLMLVRLSTLCPSAVLQRLDRLVEPLRATCTTKVKANSVKQEFEKQDELKRSAMRAVAALLTIPEAEKSPLMSEFQSQISSNPELAAIFESIQKDSSSTNLESMDTS

Kd [4]: 0.7 pM
B3: ^FlAsHΔH1Cand1 (domain or fragment, UniProt Q86VP6 15-1230, looked up)
chain: MTSSDKDFRFMATNDLMTELQKDSIKLDDDSERKVVKMILKLLEDKNGEVQNLAVKCLGPLVSKVKEYQVETIVDTLCTNMLSDKEQLRDISSIGLKTVIGELPPASSGSALAANVCKKITGRLTSAIAKQEDVSVQLEALDIMADMLSRQGGLLVNFHPSILTCLLPQLTSPRLAVRKRTIIALGHLVMSCGNIVFVDLIEHLLSELSKNDSMSTTRTYIQCIAAISRQAGHRIGEYLEKIIPLVVKFCNVDDDELREYCIQAFESFVRRCPKEVYPHVSTIINICLKYLTYDPNYNYDDEDEDENAMDADGGDDDDQGSDDEYSDDDDMSWKVRRAAAKCLDAVVSTRHEMLPEFYKTVSPALISRFKEREENVKADVFHAYLSLLKQTRPVQSWLCDPDAMEQGETPLTMLQSQVPNIVKALHKQMKEKSVKTRQCCFNMLTELVNVLPGALTQHIPVLVPGIIFSLNDKSSSSNLKIDALSCLYVILCNHSPQVFHPHVQALVPPVVACVGDPFYKITSEALLVTQQLVKVIRPLDQPSSFDATPYIKDLFTCTIKRLKAADIDQEVKERAISCMGQIICNLGDNLGSDLPNTLQIFLERLKNEITRLTTVKALTLIAGSPLKIDLRPVLGEGVPILASFLRKNQRALKLGTLSALDILIKNYSDSLTAAMIDAVLDELPPLISESDMHVSQMAISFLTTLAKVYPSSLSKISGSILNELIGLVRSPLLQGGALSAMLDFFQALVVTGTNNLGYMDLLRMLTGPVYSQSTALTHKQSYYSIAKCVAALTRACPKEGPAVVGQFIQDVKNSRSTDSIRLLALLSLGEVGHHIDLSGQLELKSVILEAFSSPSEEVKSAASYALGSISVGNLPEYLPFVLQEITSQPKRQYLLLHSLKEIISSASVVGLKPYVENIWALLLKHCECAEEGTRNVVAECLGKLTLIDPETLLPRLKGYLISGSSYARSSVVTAVKFTISDHPQPIDPLLKNCIGDFLKTLEDPDLNVRRVALVTFNSAAHNKPSLIRDLLDTVLPHLYNETKVRKELIREVEMGPFKHTVDDGLDIRKAAFECMYTLLDSCLDRLDIFEFLNHVEDGLKDHYDIKMLTFLMLVRLSTLCPSAVLQRLDRLVEPLRATCTTKVKANSVKQEFEKQDELKRSAMRAVAALLTIPEAEKSPLMSEFQSQISSNPELAAIFESIQKDSSSTNLESMDTS
modifications: FlAsH (Lumio Green) on the N-terminal tetracysteine tag

Continued, binder first:

B2: ^ΔH1Cand1 (domain or fragment, UniProt Q86VP6 15-1230, looked up)
chain: B3 chain
fold increase of KD over WT Cand1 [2]: ~4.5 fold | fold of koff (fast phase) over WT Cand1 [3]: 21 fold

B4: Cand1^1-603 (domain or fragment, UniProt Q86VP6 1-603, looked up)
chain: MASASYHISNLLEKMTSSDKDFRFMATNDLMTELQKDSIKLDDDSERKVVKMILKLLEDKNGEVQNLAVKCLGPLVSKVKEYQVETIVDTLCTNMLSDKEQLRDISSIGLKTVIGELPPASSGSALAANVCKKITGRLTSAIAKQEDVSVQLEALDIMADMLSRQGGLLVNFHPSILTCLLPQLTSPRLAVRKRTIIALGHLVMSCGNIVFVDLIEHLLSELSKNDSMSTTRTYIQCIAAISRQAGHRIGEYLEKIIPLVVKFCNVDDDELREYCIQAFESFVRRCPKEVYPHVSTIINICLKYLTYDPNYNYDDEDEDENAMDADGGDDDDQGSDDEYSDDDDMSWKVRRAAAKCLDAVVSTRHEMLPEFYKTVSPALISRFKEREENVKADVFHAYLSLLKQTRPVQSWLCDPDAMEQGETPLTMLQSQVPNIVKALHKQMKEKSVKTRQCCFNMLTELVNVLPGALTQHIPVLVPGIIFSLNDKSSSSNLKIDALSCLYVILCNHSPQVFHPHVQALVPPVVACVGDPFYKITSEALLVTQQLVKVIRPLDQPSSFDATPYIKDLFTCTIKRLKAADIDQEVKERAISCMGQIICNLGDN
binding result [5]: binds
